Test results taken from US12460006B2, “Antibodies against integrin alpha 11 beta 1” (Momenta Pharmaceuticals, Inc., priority 2019, dated 2025).

What was measured:
[1] = target: mouse α11β1 (Mus musculus, UniProt P61622); assay: ELISA binding to recombinant mouse α11β1; conditions: for Murine α11β1 ELISA: binding Yes/No
Method: 0.25 μg/mL of target antigen (recombinant human or mouse α11β1) was plated in a 96-well plate over night at 4° C. Plates were washed (PBS with 0.1% Tween-20), blocked (PBS with 2% BSA and 0.05% Tween-20) for 1 hour at room temperature and incubated with a range of antibody concentrations for 1 hour at room temperature. Subsequently, plates were washed and incubated with biotinylated anti-rabbit/mouse/human IgG in a 1:1000 dilution buffer and incubated for 1 hour at room temperature. After washing the plates, Streptavidin HRP was added at 1:200 in dilution buffer and incubated for 1 hour at room temperature. Ultra TMB ELISA substrate solution was added and the plates incubated for 5 minutes on a plate shaker. The reaction was stopped by adding stop solution to each well and plates were read at 450 nm.

[2] = target: T1, α11β1 expressed on the surface of CHO-K1 cells (Homo sapiens, UniProt Q9UKX5); assay: FACS antibody binding to CHO-K1 cells expressing human α11; conditions: for CHO-K1 FACS: binding Yes/No
T1 construct: expressed in transfected cells; host or cells: CHO-K1
T1 sequence (Q9UKX5 23-1188): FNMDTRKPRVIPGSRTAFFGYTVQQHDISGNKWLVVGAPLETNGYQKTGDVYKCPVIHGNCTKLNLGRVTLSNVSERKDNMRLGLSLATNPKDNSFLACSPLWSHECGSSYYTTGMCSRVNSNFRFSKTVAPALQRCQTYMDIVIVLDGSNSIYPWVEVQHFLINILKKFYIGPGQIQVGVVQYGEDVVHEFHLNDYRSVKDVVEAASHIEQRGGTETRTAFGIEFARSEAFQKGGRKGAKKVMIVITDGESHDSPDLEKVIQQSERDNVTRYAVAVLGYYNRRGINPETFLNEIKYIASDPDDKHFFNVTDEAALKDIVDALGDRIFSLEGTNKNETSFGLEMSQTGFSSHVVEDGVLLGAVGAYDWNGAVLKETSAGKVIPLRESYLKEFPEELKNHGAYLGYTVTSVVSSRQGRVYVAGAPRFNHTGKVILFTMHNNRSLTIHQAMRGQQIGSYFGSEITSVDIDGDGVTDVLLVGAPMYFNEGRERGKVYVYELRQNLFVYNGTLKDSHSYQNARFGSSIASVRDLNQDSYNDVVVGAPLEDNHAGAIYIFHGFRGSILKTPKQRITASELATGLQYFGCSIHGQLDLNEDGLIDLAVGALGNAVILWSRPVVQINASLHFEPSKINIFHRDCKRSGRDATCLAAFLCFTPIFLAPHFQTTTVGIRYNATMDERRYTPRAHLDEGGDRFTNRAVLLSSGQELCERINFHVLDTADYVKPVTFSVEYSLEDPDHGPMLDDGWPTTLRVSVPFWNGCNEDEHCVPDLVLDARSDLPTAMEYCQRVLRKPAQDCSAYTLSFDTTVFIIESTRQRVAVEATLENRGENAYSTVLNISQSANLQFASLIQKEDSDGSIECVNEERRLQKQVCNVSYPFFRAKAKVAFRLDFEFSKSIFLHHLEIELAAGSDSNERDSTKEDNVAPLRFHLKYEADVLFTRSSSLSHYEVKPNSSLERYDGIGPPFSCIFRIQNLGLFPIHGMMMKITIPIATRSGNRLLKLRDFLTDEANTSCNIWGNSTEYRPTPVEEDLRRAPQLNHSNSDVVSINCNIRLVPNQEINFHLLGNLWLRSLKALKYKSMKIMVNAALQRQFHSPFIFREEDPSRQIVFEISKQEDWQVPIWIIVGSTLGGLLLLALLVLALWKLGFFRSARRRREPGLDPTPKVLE
Method: 200,000 cells (wild-type CHO-K1 cells or CHO-K1 cells expressing human α11) were incubated with each antibody at desired concentrations in FACS buffer for 30 min at 4° C. Then, the cells were washed with FACS buffer and incubated with secondary antibody at 1:100 dilution for 30 minutes at 4° C. Cells were then washed and fixed with 1% PFA in PBS for 20 minutes at room temperature; washed again and read on a cytometer in FACS buffer.
Since integrins are large, transmembrane receptors that exist in different conformational shapes, experiments were performed to confirm that the novel antibodies also bound cell-expressed α11β1. A CHO-K1 cell line that endogenously expressed high levels of the β1 subunit was engineered to stably express human α11 (CHO-K1 hu α11).
Binding EC50 was estimated using data from Fluorescence-activated cell sorting (FACS) performed with CHO-K1 hu α11β1 cells.

[3] = test system: myofibroblasts (MF); assay: FACS antibody binding to myofibroblasts; parameters: species or system human; conditions: binding Yes/No
Method: Human Pulmonary Fibroblasts (ScienCell) were cultured in complete Fibroblast Growth Medium (ScienCell) until 80% confluent in T-150 flasks. Cells were washed and harvested using Accutase. Cells were seeded into T-150 flasks at 7,500 cells/cm^2 in complete FGF and cultured for 72 hours. Cells were then washed and starved in serum reduced medium for 24 hours. After starvation, cells were treated with TGFβ-1 (R&D Systems) for 72 hours. Cells were harvested using Accutase and seeded in 96-well conical bottom plates. Cells were blocked with Heat Inactived Fetal Bovine Serum (Gibco) for 30 minutes at 4° C. Cells were then incubated with anti-α11 antibodies at the doses described in each figure for 30 minutes at 4° C. A human anti-α11 antibody (Creative BioLabs) was included as a positive control as well as the appropriate IgG isotype negative controls. Cells were washed twice and incubated with PE conjugated secondary antibodies specific to the IgG class of the anti-α11 antibodies being tested for 30 minutes at 4° C. Cells were washed twice and fixed in 1% PFA for 30 minutes. Cells were acquired on a FACS Verse […]. Data were analyzed by gating on single cells and determining the geometric Mean Fluorescence Intensity (gMFI) in the PE channel for each sample.
Binding to a physiologically relevant primary human cell type was also tested. Human pulmonary fibroblasts (HPF) and TGFβ treatment were used to induce a fibroblast-to-myofibroblast transition (FMT), giving rise to myofibroblasts (MF). […] Additionally, HPFs express α11 and α2β1, other collagen binding receptors, which means that HPFs can be to test cross-reactivity of antibodies of interest.

Sequence of mouse α11β1 (P61622 23-1141 limits assumed): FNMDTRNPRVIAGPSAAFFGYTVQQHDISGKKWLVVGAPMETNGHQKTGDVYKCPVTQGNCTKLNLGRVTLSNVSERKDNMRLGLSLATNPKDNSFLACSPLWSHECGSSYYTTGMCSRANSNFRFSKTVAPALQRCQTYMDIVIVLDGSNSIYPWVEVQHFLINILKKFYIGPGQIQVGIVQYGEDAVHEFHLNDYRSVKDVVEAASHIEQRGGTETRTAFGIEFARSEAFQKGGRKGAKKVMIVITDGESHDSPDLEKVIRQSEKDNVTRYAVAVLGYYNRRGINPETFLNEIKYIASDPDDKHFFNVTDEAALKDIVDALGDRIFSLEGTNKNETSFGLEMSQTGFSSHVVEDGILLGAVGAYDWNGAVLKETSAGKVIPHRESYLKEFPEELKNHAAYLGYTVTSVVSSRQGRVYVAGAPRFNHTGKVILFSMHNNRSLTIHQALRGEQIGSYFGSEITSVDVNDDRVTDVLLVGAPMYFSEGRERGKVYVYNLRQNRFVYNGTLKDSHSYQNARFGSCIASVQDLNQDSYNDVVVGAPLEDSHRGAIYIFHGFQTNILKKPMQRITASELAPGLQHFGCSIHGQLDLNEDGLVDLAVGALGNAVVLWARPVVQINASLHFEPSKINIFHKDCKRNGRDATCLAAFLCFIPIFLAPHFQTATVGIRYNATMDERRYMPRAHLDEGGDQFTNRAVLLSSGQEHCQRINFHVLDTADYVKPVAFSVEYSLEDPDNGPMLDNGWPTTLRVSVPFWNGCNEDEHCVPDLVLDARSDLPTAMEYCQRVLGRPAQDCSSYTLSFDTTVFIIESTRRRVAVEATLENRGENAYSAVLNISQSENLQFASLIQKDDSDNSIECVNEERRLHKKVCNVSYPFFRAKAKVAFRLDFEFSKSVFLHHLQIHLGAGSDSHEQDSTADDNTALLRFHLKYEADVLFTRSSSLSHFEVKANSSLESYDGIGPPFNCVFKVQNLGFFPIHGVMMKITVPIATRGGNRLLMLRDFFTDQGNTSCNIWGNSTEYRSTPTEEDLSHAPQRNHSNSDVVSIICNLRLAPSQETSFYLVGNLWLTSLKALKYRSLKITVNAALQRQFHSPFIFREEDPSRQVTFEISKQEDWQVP
Sequence of mouse α11β1 (P09055 21-728 partner limits assumed): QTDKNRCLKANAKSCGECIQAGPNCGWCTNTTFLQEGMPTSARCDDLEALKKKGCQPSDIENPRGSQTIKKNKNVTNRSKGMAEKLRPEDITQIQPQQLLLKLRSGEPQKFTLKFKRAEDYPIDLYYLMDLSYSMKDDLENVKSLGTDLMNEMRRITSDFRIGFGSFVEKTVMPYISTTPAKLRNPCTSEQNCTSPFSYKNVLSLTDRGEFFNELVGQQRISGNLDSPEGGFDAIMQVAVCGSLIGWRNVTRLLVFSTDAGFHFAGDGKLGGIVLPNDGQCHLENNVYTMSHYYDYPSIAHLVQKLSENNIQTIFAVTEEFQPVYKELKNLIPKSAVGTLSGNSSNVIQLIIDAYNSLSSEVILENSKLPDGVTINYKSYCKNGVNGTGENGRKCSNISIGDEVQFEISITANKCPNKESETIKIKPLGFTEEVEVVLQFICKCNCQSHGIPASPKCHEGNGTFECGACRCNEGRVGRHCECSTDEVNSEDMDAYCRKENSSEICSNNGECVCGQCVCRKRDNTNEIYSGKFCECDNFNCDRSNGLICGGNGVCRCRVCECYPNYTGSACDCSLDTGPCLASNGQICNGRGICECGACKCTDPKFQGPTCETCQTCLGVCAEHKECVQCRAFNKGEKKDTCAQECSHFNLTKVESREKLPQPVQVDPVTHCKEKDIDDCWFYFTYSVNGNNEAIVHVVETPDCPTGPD

B1: 16E10: rabbit anti-α11β1 mAb; heavy chain SEQ ID NO: 161, light chain SEQ ID NO: 162 (antibody)
heavy: METGLRWLLLVAVLKGVQCQSLEESGGDLVKPGASLTLTCRVSGFSFSSSYYMCWVRQAPGKGLEWIACIGTTRGSTYYATWAKGRFTISKISSTTVTLQMTSLTDADTATYFCARDATGYRINTIGLYFNLWGPGTLVTVSSGQPKAPSVFPLAPCCGDTPSSTVTLGCLVKGYLPEPVTVTWNSGTLTNGVRTFPSVRQSSGLYSLSSVVSVTSSSQPVTCNVAHPATNTKVDKTVAPSTCSKPMCPPPELPGGPSVFIFPPKPKDTLMISRTPEVTCVVVDVSQDDPEVQFTWYINNEQVRTARPPLREQQFNSTIRVVSTLPIAHQDWLRGKEFKCKVHNKALPAPIEKTISKARGQPLEPKVYTMGPPREELSSRSVSLTCMINGFYPSDISVEWEKNGKAEDNYKTTPTVLDSDGSYFLYSKLSVPTSEWQRGDVFTCSVMHEALHNHYTQKSISRSPGK
light: MDTRAPTQLLGLLLLWLPGARCAFELTQTPSSVEAAVGGTPTIKCQASQTIYSYLSWYQQKPGQPPKLLIYEASKLASGVPSRFSGSGSGTDYTLTISDLECADAATYYCQSYHGTASTEYNTFGGGTEVVVRGDPVAPTVLIFPPAADQVATGTVTIVCVANKYFPDVTVTWEVDGTTQTTGIENSKTPQNSADCTYNLSSTLTLTSTQYNSHKEYTCKVTQGTTSVVQSFNRGDC
[1]
  binding to mouse α11β1: does not bind mouse α11β1
  Murine α11β1 ELISA: No
[2]
  CHO-K1 FACS: Yes
[3]
  MF FACS: Yes

B2: 24E4G6: rat anti-α11β1 mAb; VH SEQ ID NO: 147, VL SEQ ID NO: 148 (antibody, V domains shown)
VH: MELELSLIFIFSLLKDVQCEVQLVESGGSLVQPGGSLKLSCVASGYTFSNYWMDWVRQSPGKSLEWIGEINTDGRRTNYAPSIKDRFTISRDNAKSTLYLQMSNVKSDDTAIYYCTILRVYPHYFDYWGQGVMVTVSS
VL: MMSPAQFLFLLMLWIQEARGDVVMTQTPPSLSVAIGQSVSISCKSSQSLVYSDGETYLHWFLQSPGRSPKRLIYHVSNLGSGVPDRFSGTGSLTDFTLRISRVEAEDLGVYYCAQTTHFPPTFGAGTKLELK
[1]
  Murine α11β1 ELISA: No/Low
[2]
  CHO-K1 FACS: Yes
[3]
  MF FACS: Yes

B3: 16G7: rabbit anti-α11β1 mAb; heavy chain SEQ ID NO: 159, light chain SEQ ID NO: 160 (antibody)
heavy: METGLRWLLLVAVFKGVQCQEQLVESGGDLVKPGASLTLTCTASGFSFNKNYWMCWVRQAPGKGLEWIGCIYNGDGNTYYASWVNGRFTISKTSSTTVTLQMTSLTVADTAIYFCARLLNMWGPGTLVTVSSGQPKAPSVFPLAPCCGDTPSSTVTLGCLVKGYLPEPVTVTWNSGTLTNGVRTFPSVRQSSGLYSLSSVVSVTSSSQPVTCNVAHPATNTKVDKTVAPSTCSKPMCPPPELPGGPSVFIFPPKPKDTLMISRTPEVTCVVVDVSQDDPEVQFTWYINNEQVRTARPPLREQQFNSTIRVVSTLPIAHQDWLRGKEFKCKVHNKALPAPIEKTISKARGQPLEPKVYTMGPPREELSSRSVSLTCMINGFYPSDISVEWEKNGKAEDNYKTTPTVLDSDGSYFLYSKLSVPTSEWQRGDVFTCSVMHEALHNHYTQKSISRSPGK
light: MDTRAPTQLLGLLLLWLPGARCADIVMTQTPASVEAAVGGTVTIKCQASESIGNALAWYQQKPGQPPKLLIYTAATLASGVPSRFSGSGSGTEFTLTISGVQCDDAATYYCQSYYFTSVSSYGNAFGGGTEVVVKGDPVAPTVLIFPPAADQVATGTVTIVCVANKYFPDVTVTWEVDGTTQTTGIENSKTPQNSADCTYNLSSTLTLTSTQYNSHKEYTCKVTQGTTSVVQSFNRGDC
[1]
  Murine α11β1 ELISA: Yes
[2]
  CHO-K1 FACS: Yes
[3]
  MF FACS: Yes

B4: 9-E16: mouse anti-α11β1 mAb; VH SEQ ID NO: 111, VL SEQ ID NO: 112 (antibody, V domains shown)
VH: EVQLQQSGPELVKPGASVKISCKASGYTFTDYYMHWVKQKPGQGLEWIGEIYPGSGNPYYNEKFKGKATLTADKSSSSAYMQLSSLTSEDSAVYFCARTSYGRVGTGFAYWGQGTLVTVSA
VL: NFVMTQTPLSLPVSLGDQASISCRSSQSLLHSNGNTYLHWYLQKPGQSPKLLIYKVSNRFSGVPDRFSGSGSGTDFTLKINRVETEDLGIYFCSQSSHVPTFGAGTKLELK
[1]
  Murine α11β1 ELISA: Yes
[2]; FACS
  CHO-K1 binding EC50 (in words): not as potent
[2]
  CHO-K1 FACS: Yes
[3]
  MF FACS: Yes
